# Experimental data published in the supplement of paper PMC11316812.
# ± gives the standard deviation of the averaged measurements.
# Assays:
# MCF7 = test: percentage of EdU-negative (G0-arrested) nuclei per well, 72 h; higher = more G0 arrest; conditions: reference: sequence is the full UniProt precursor, the tested protein was the secreted form or ectodomain
# hTERT-HMEC = test: as above; conditions: reference: sequence is the full UniProt precursor, the tested protein was the secreted form or ectodomain
# [1] = protein concentration 0.00875 µM
# [2] = protein concentration 0.0875 µM
# [3] = protein concentration 0.0225 µM
# [4] = protein concentration 0.03125 µM
# [5] = protein concentration 0.3125 µM
# 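Note: secreted proteins added to cultured cells, EdU pulse at the end, nuclei found by Hoechst imaging, EdU status from nuclear versus surrounding ring intensity ratio, PBS as neutral control.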
Sequence,percentage of EdU-negative (MCF7; [3]),percentage of EdU-negative (MCF7; protein concentration 0.225 µM),percentage of EdU-negative (hTERT-HMEC; [3]),percentage of EdU-negative (hTERT-HMEC; protein concentration 0.225 µM),other results
MLRKGCCVELLLLLVAAELPLGGGCPRDCVCYPAPMTVSCQAHNFAAIPEGIPVDSERVFLQNNRIGLLQPGHFSPAMVTLWIYSNNITYIHPSTFEGFVHLEELDLGDNRQLRTLAPETFQGLVKLHALYLYKCGLSALPAGVFGGLHSLQYLYLQDNHIEYLQDDIFVDLVNLSHLFLHGNKLWSLGPGTFRGLVNLDRLLLHENQLQWVHHKAFHDLRRLTTLFLFNNSLSELQGECLAPLGALEFLRLNGNPWDCGCRARSLWEWLQRFRGSSSAVPCVSPGLRHGQDLKLLRAEDFRNCTGPASPHQIKSHTLTTTDRAARKEHHSPHGPTRSKGHPHGPRPGHRKPGKNCTNPRNRNQISKAGAGKQAPELPDYAPDYQHKFSFDIMPTARPKRKGKCARRTPIRAPSGVQQASSASSLGASLLAWTLGLAVTLR [Q86UN2],–,–,–,–,percentage of EdU-negative (MCF7; [1]): 26.2 ± 0.18%; percentage of EdU-negative (MCF7; [2]): 28.6 ± 1.4%; percentage of EdU-negative (hTERT-HMEC; [1]): 5.4 ± 1%; percentage of EdU-negative (hTERT-HMEC; [2]): 5.31 ± 0.34%
MLRLYVLVMGVSAFTLQPAAHTGAARSCRFRGRHYKREFRLEGEPVALRCPQVPYWLWASVSPRINLTWHKNDSARTVPGEEETRMWAQDGALWLLPALQEDSGTYVCTTRNASYCDKMSIELRVFENTDAFLPFISYPQILTLSTSGVLVCPDLSEFTRDKTDVKIQWYKDSLLLDKDNEKFLSVRGTTHLLVHDVALEDAGYYRCVLTFAHEGQQYNITRSIELRIKKKKEETIPVIISPLKTISASLGSRLTIPCKVFLGTGTPLTTMLWWTANDTHIESAYPGGRVTEGPRQEYSENNENYIEVPLIFDPVTREDLHMDFKCVVHNTLSFQTLRTTVKEASSTFSWGIVLAPLSLAFLVLGGIWMHRRCKHRTGKADGLTVLWPHHQDFQSYPK,25.1 ± 1.5%,30.8 ± 0.31%,5.09 ± 0.47%,9.76 ± 1.8%,–
MLRMRVPALLVLLFCFRGRAGPSPHFLQQPEDLVVLLGEEARLPCALGAYWGLVQWTKSGLALGGQRDLPGWSRYWISGNAANGQHDLHIRPVELEDEASYECQATQAGLRSRPAQLHVLVPPEAPQVLGGPSVSLVAGVPANLTCRSRGDARPTPELLWFRDGVLLDGATFHQTLLKEGTPGSVESTLTLTPFSHDDGATFVCRARSQALPTGRDTAITLSLQYPPEVTLSASPHTVQEGEKVIFLCQATAQPPVTGYRWAKGGSPVLGARGPRLEVVADASFLTEPVSCEVSNAVGSANRSTALDVLFGPILQAKPEPVSVDVGEDASFSCAWRGNPLPRVTWTRRGGAQVLGSGATLRLPSVGPEDAGDYVCRAEAGLSGLRGGAAEARLTVNAPPVVTALHSAPAFLRGPARLQCLVFASPAPDAVVWSWDEGFLEAGSQGRFLVETFPAPESRGGLGPGLISVLHISGTQESDFSRSFNCSARNRLGEGGAQASLGRRDLLPTVRIVAGVAAATTTLLMVITGVALCCWRHSKASASFSEQKNLMRIPGSSDGSSSRGPEEEETGSREDRGPIVHTDHSDLVLEEEGTLETKDPTNGYYKVRGVSVSLSLGEAPGGGLFLPPPSPLGPPGTPTFYDFNPHLGMVPPCRLYRARAGYLTTPHPRAFTSYIKPTSFGPPDLAPGTPPFPYAAFPTPSHPRLQTHV [Q6UWL6],26.9 ± 3.4%,28.2 ± 1.2%,5.24 ± 0.16%,5.69 ± 0.77%,–
MLRRRGSPGMGVHVGAALGALWFCLTGALEVQVPEDPVVALVGTDATLCCSFSPEPGFSLAQLNLIWQLTDTKQLVHSFAEGQDQGSAYANRTALFPDLLAQGNASLRLQRVRVADEGSFTCFVSIRDFGSAAVSLQVAAPYSKPSMTLEPNKDLRPGDTVTITCSSYQGYPEAEVFWQDGQGVPLTGNVTTSQMANEQGLFDVHSILRVVLGANGTYSCLVRNPVLQQDAHSSVTITPQRSPTGAVEVQVPEDPVVALVGTDATLRCSFSPEPGFSLAQLNLIWQLTDTKQLVHSFTEGRDQGSAYANRTALFPDLLAQGNASLRLQRVRVADEGSFTCFVSIRDFGSAAVSLQVAAPYSKPSMTLEPNKDLRPGDTVTITCSSYRGYPEAEVFWQDGQGVPLTGNVTTSQMANEQGLFDVHSVLRVVLGANGTYSCLVRNPVLQQDAHGSVTITGQPMTFPPEALWVTVGLSVCLIALLVALAFVCWRKIKQSCEEENAGAEDQDGEGEGSKTALQPLKHSDSKEDDGQEIA [Q5ZPR3],–,–,–,–,percentage of EdU-negative (MCF7; protein concentration 0.019 µM): 24.4 ± 2.3%; percentage of EdU-negative (MCF7; protein concentration 0.19 µM): 27.33 ± 0.26%; percentage of EdU-negative (hTERT-HMEC; protein concentration 0.019 µM): 5.89 ± 0.34%; percentage of EdU-negative (hTERT-HMEC; protein concentration 0.19 µM): 9.74 ± 0.48%
MLSCRLQCALAALSIVLALGCVTGAPSDPRLRQFLQKSLAAAAGKQELAKYFLAELLSEPNQTENDALEPEDLSQAAEQDEMRLELQRSANSNPAMAPRERKAGCKNFFWKTFTSC,–,–,–,–,percentage of EdU-negative (MCF7; [4]): 25.9 ± 3.1%; percentage of EdU-negative (MCF7; [5]): 27 ± 1.9%; percentage of EdU-negative (hTERT-HMEC; [4]): 5.72 ± 0.93%; percentage of EdU-negative (hTERT-HMEC; [5]): 4.88 ± 0.35%
MLSGRLVLGLVSMAGRVCLCQGSAGSGAIGPVEAAIRTKLEEALSPEVLELRNESGGHAVPPGSETHFRVAVVSSRFEGLSPLQRHRLVHAALAEELGGPVHALAIQARTPAQWRENSQLDTSPPCLGGNKKTLGTP [Q9Y3E2],28 ± 1.9%,27.3 ± 2.5%,5.42 ± 0.18%,5.59 ± 0.52%,–
